The values below come from PMC10204944, “Development and characterization of nanobodies that specifically target the oncogenic Phosphatase of Regenerating Liver-3 (PRL-3) and impact its interaction with a known binding partner, CNNM3” (PLOS ONE, 2023).

Substitutions are numbered along the chain they refer to.

B1: anti-PRL-3 nanobody 4 (VHH)
VHH: QVQLQESGGGLVQTGGSLRLSCAASQSTYNFDVMGWYRLAPGKQREFLTSITNGGNIYYADSVKGRFTIARDDSKTTMYLEMNSLKPEDTAVYTCYGQTHKPRVTTSWGQGTQVTVSS
notes: also called NB 4; source: E. coli One-Shot BL21 Star DE3 (pMES4), purified (Ni-NTA, Superdex 200); not shown: 6XHis, C-terminal, kept
B2: anti-PRL-3 nanobody 91 (VHH)
VHH: B1 VHH with Y29F
notes: 91 is its standard; also called NB 91; nanobody 91-His; source: E. coli One-Shot BL21 Star DE3 (pMES4), purified (Ni-NTA, Superdex 200); not shown: 6XHis, C-terminal, kept
B3: anti-PRL-3 nanobody 16 (VHH)
VHH: B1 VHH with Y29F, I69T
notes: also called NB 16; source: E. coli One-Shot BL21 Star DE3 (pMES4), purified (Ni-NTA, Superdex 200); not shown: 6XHis, C-terminal, kept
B4: anti-PRL-3 nanobody 26 (VHH)
VHH: QVQLQESGGGLVQPGGSLKLSCVVTGLHYYTEGWFRQAPGKEREGVSCISSSDGRTDYIDSVKGRFTISEDNDNKTVYLQMNTLKPDDTGVYYCVAERGPRGSTWWETYDYWGQGTHVTVSS
notes: also called NB 26; nanobody 26-His; source: E. coli One-Shot BL21 Star DE3 (pMES4), purified (Ni-NTA, Superdex 200); not shown: 6XHis, C-terminal, kept
B5: anti-PRL-3 nanobody 19 (VHH)
VHH: QVQLQESGGGLVQAGGSLGLSCAASRSIFNFKVMGWYRQAPGKQRELVASITNSDNTYYADSVKGRFTISREDAKTTMYLEMNSLKPEDTAVYRCYGQNWGLRATTYWGQGTQVTVSS
notes: also called NB 19; source: E. coli One-Shot BL21 Star DE3 (pMES4), purified (Ni-NTA, Superdex 200); not shown: 6XHis, C-terminal, kept
B6: anti-PRL-3 nanobody 84 (VHH)
VHH: B5 VHH with A91T
notes: also called NB 84; source: E. coli One-Shot BL21 Star DE3 (pMES4), purified (Ni-NTA, Superdex 200); not shown: 6XHis, C-terminal, kept

T1 sequence (O75365 1-169): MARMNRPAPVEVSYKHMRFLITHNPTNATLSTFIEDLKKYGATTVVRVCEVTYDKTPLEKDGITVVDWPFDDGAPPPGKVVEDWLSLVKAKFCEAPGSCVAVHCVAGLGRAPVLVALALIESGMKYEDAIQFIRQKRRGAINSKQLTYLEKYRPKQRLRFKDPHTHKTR

The assay concerns the target T1, recombinant PRL-3 (Phosphatase of Regenerating Liver-3) (Homo sapiens, UniProt O75365).
T1 construct: Phosphatase of Regenerating Liver-3 (PRL-3), human cDNA amplified with gene-specific primers and cloned into pSKB3 (NheI/XhoI); also called apo PRL-3; PTP4A family member; source: E. coli One-Shot BL21 Star DE3, purified (Ni-NTA, TEV cleavage, Superdex 200); not shown: 6XHis, N-terminal, cleaved
Kind of assay: BLI; BLItz; nanobody (626.57 nM) loaded on Anti-Penta-HIS (HIS1K) biosensors; PRL-3 as analyte at six concentrations; association 5 min, dissociation 2 min; 1X kinetics buffer; global fit. The conditions noted are these: both partners purified.
As to B1, the dissociation constant (Kd) stood at 202 nM, the koff is 0.000565 s⁻¹ and the kon turned out to be 2750 M⁻¹ s⁻¹.
B2: the Kd came out at 203 nM, the off-rate (koff) was determined as 0.00139 s⁻¹ and the association rate constant (kon) came to 6880 M⁻¹ s⁻¹.
For the molecule B3, the Kd came to 299 nM, the koff was determined as 0.000624 s⁻¹ and the kon was determined as 2090 M⁻¹ s⁻¹.
For B4, the dissociation constant Kd is 28.9 nM, the koff came out at 0.000127 s⁻¹ and the association rate constant (kon) amounted to 4380 M⁻¹ s⁻¹.
In the case of B5, the Kd amounted to 98.4 nM, the off-rate constant (koff) was determined as 0.000386 s⁻¹ and the kon is 3920 M⁻¹ s⁻¹.
For B6, the Kd worked out at 101 nM, the koff stood at 0.000332 s⁻¹ and the on-rate (kon) stood at 3280 M⁻¹ s⁻¹.
